Assay results taken from a protein production outcome set (Wang et al. 2014).

Assay: label from the status in PepcDB records
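Further: failed if final PepcDB status was selected cloned or expressed and not failed if soluble or beyond.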

Sequence | protein production
MATSRLQLEGDDSVHLHITHANLKSFSADARFSPQMSVEAVKEKLWKKCGTSVNSMALELYDDSGSKVAVLSDDSRPLGFFSPFDGFRLHIIDLDPSSVTTGGWLEDTSLVEKYNISEEDYAKRTDSFRKFKEKRVSQNPVAAEAKTKENYMEDLCANIKVGDRCQVEPGEKRGMVKYVGRAESLGPGYWVGIQYDEPLGKHDGMVKGTRFFECPRLQGGMVRPDKVKVGDYPERDPFEEDEI | failed
MATSSTQLLLSSSSLFHSQITKKPFLLPATKIGVWRPKKSLSLSCRPSASVSAASSAVDVNESVTSEKPTKTLPFRIGHGFDLHRLEPGYPLIIGGIVIPHDRGCEAHSDGDVLLHCVVDAILGALGLPDIGQIFPDSDPKWKGAASSVFIKEAVRFRRLP | failed
MATTLPRITARVDVDTQDLLAKAAALAGMSSINSFVLNAAIEKAKQVIEREQALKLSQADAVLLMEALDNPAVVNAKLKLASERYESKTQ | failed
MAVEQPTAHAGGQSPAHAGEQSRIHNIGYRNYDGPRLGRAYARRSLYSQSLRGAYGLGRSVKSKVLPMLLFVVMCVPALIMVAVAVATKAKDLPVDYTRYAIIMQAVIGLYVASQAPQSVSRDLRFKTVPLYFSRPIETADYVRAKYAALASAMFILTAAPLLVLYVGALLAKLDFTDQTKGFAQGLVSVALLSLLFAGIGLVISAVTPRRGFGIAAVIAVLTISYGAVSTVQAIADAQNSTSAVPWLGLFSPVTLIDGMQTAFLGASSSFPGEAGPSSAQGVVFLIVVLGLIAGCYGLLMRRYRKVGL | failed
MAVGDQTEQNYLPKKKKSETEDDKRRKKIVPGSLLKAVVRPGGGDSSPVDGDQVIYHCTVRTLDGVVVESTRSESGGRGVPIRDVLGNSKMILGLLEGIPTMHKGEIAMFKMKPEMHYAEIDCPVSAPENFPKDDELHFEIELLDFSKAKIASDDLGVIKKILNEGEGWESPREPYEVKARISAKSGDGHVIFSHTEEPYFFTFGKSEVPKGLEIGIGTMARKEKAVIYVRKQYLTESPLLHIDQDLEEVHFEVELVHFIQVRDMLGDGRLIKRRIRDGRGEFPMDCPLQDSRLSVHYKGMLLNEEKTVFYDSKIDNNDQPLEFSSGEGLVPEGFEMCTRLMLPGEIALVTCPPDYAYDKFPRPPGVSEGAHVQWEIELLGFETPRDWTGLNFQSIMDEADKIRSTGNRLFKEGKFELAKAKYEKVLREFNHVNPQDEDEGKIFGDTRNMLHLNVAACLLKMGEWRKSIETCNKVLEAKPGHVKGLYRRGMAYIAGGEYDDARNDFNMMIKVDKSSEADATAALLKLKQKEQEAESKARKQFKGLFDKRPGEITEVGSEIREESKTIEEVDETKDNDDDETLEEEGATTVSTERKRKWSEKAWPFLKNVMLQIGIQLGVVLIGILIFQFVSAKFT | failed
MAVLLSSFSPLGINIDMNKNLGVSYSSFPQIHLFKGSTPLRVRTFVVSSRKNSGTGLASEDKKLLLERYGYDANDDFGSQSKKARRKEEKMSGRNSQQVEEVVVVQPRTTHRLLQVLAGTAKRKKLLSLKGMDVRPMMEVVKGAAFGILQAAGGCPTSLRPGRWLDLYSGTGSVGIEAISRGCSEAHFVEMDPWVVSNVLQPNLEHTGFVDASVIHTARVENFLERADKLVGKDGVFDYISVTPPYMEVDYEVLMDQIAKSPAIGENTFILVEYPSRTTMLDSCGCLEKMTDRRFGRTHLAIYGPKWAQKPRKS | failed
MAVLSMLGIIDAKPKVGYFYLGQYHASIGTSHFEKMTVSEIMGIPLTVHQKDSVYDVIVHIFMEDAGCAFILDDDDFLCGVVSRKDLLKISIGGGDLSKMPIGMVMTRMPHVTTVLENESLFAAADKLVSRKVDSLPVVRHDKQYPEKFKVIGKLSKTILASLFLEIRDY | failed
MAVPSFFTLMNLLCGFMALTQVADAAFVLACWLIVLAGFFDLLDGVMARLTGADSPFGVQLDSLSDIVSFGVAPSFLLYGYVLDTFNPLGMIVAALPALCGAVRLARYNMTADESDKEGFEGLPIPGQAIAVVALILAAENSAWDGRFALDSLRVVLPVVIVLSGLMVSSIRFDAIPMPSLEAVRTHPSKIAAYGLAGLLIVGLQERGLLIVLTAYLLHGVGRALYKLMRALVAPVPDERLGS | failed
MAVRFFHTSDWHLGQFFYNHSRHYEHEQFLAWLLKQIKAKQPHALLIAGDIFDVINPSSQAQKQLYQFLADAHALAPHMQTLMIAGNHDSGYRIEQVEPLLEKYNARTVGVIRWNEDKTLNLERLILPVYDENKNVVAWCIALPFLRSAEITGFNEHTNNSQSAIAYLHEQLISEAKRRKTDDQAIILMSHAHMQGGETSDSERPIIIGNEEALSTALFDDAIDYVALGHLHKPQKVQHPHIRYSGSPIPLSFSEINYKHQVVDVNIDPTQSTDKFQFEAIEIPRSIKLHKIRGELNEVIQQLKSLAQGEIESIDLREYIDIEYHTLTPPLPNLRQQFEDALPPKRYRLVRISRQYLSQDNNAAQASKINLEPPTPEKLFEQIWDKKGYHADDDVKKDFMSLVAQAQQQLEDQHKY | failed
MAVRIVDDLQQLSLLLMFLSTFIFYRYLKKVKRERKLTGFEWTMYFVTQFATLIWAITYFIKHLAES | failed
MAVRVCCHAPPGVSNHLFTFCAGNLTTGFSGGSVTSQKGGAAGLPTCSRRCPRGCLPGSDPLPRHPRRYAPPVTPPVTPPTTPAPRSRARMLELVFPKDTNYHGTAFGGWVLALMDKAASVAAVRHAGGNVVTARMDGVDFHVPIRVGDAVALDARVIRVGRSSMTIRVDVYRENMASGEQQLATGGLFTFVALGEDGKPRPVPPLPEGSTDSEQPDYEARP | failed
MAVSKMEKMTIIAAAEKEAAILQAIQGLQIVEVKRIFHSPEEEQALKSQYSFLQAEQSTEQLRKYETMLQQLQELLLFLTRSSGKGLKIKRKVYTLEELEQTFDEETLQSYLTELKNIQESLKQIQTDRQGLEAEEELLGRWQYLDVLPHKQQLKSSYVVHGSINLANKASFLSALSQWPTVYFEEIYQSMHHSYFTLVYLKEHQQSVTELLNQYSFEPLQYRYDVPPKEAYQQVKERYEILQKEEKALKQQLASYHDFYETFCLAEEVLLAVIQREQARQHLLNASSFFILQTWIPVEEKAEILTAIEEKVPKDEIALTFENPTKAEIETDIPVKLANNKLVQPFEMLTEMYSLPKYEEVDPTPAMMPFYLVFFGMMVADIGYGLLMLLLSIIALKAFVLPRGMKRFADFFLILSFPTIIWGFIYGSFFGAALPPIMFGIKSPFPILSTTEDVNTILILSVIFGFIQLVVGLMINGIQLSKQKRYLDSINESYAWLGILFGLALLVVGKLVVKNEGLFTAGAILASLSAIAIIVIPMIQSKAKLKGLAKGLYGLYGVTGYVGDLVSYTRLMALGIAGGSIASAFNMLVEFMPPVARFSVGILLLIVLHALNIFLSLLGAYVHGARLQYVEFFGKFYTGGGRAFNPLKTKEKYVNVEKK | failed
MAVSSGTFSTFLCIKTTSFRNPSTPLSSLRFASHPAAKLRLVRAVTSATESSEPTATNKRVPRGIMKPRPVSPEMQDIVELPEIARTQALKRIWAYIKEHDLQDPQNKREILCDEKLKKIFEGRDRVGFLEIAKLIGPHFL | failed
MAVVASAPGKVLMTGGYLVLEKPNAGLVLSTNARFYAIVKPINEEVKPESWAWKWTDVKLTSPQLSRESMYKLSLNHLTLQSVSASDSRNPFVEHAIQYAIAAAHLATEKDKESLHKLLLQGLDITILGSNDFYSYRNQIESAGLPLTPESLGTLAPFASITFNAAESNGANSKPEVAKTGLGSSAAMTTAVVAALLHYLGVVDLSDPCKEGKFGCSDLDVIHMIAQTSHCLAQGKVGSGFDVSCAVYGSQRYVRFSPEVLSFAQVAVTGLPLNEVIGTILKGKWDNKRTEFSLPPLMNLFLGEPGSGGSSTPSMVGAVKKWQMSDPEKARENWQNLSDANLELETKLNDLSKLAKDHWDVYLRVIKSCSVLTSEKWVLHATEPINEAIIKELLEAREAMLRIRILMRQMGEAASVPIEPESQTQLLDSTMSAEGVLLAGVPGAGGFDAIFAITLGDSGTKLTQAWSSHNVLALLVREDPHGVCLESGDPRTTCITSGVSSIHLE | failed
MAWNKQVALVFLPSDSGVDGARSLYGDTEPPGLRRWLDSGVRNLIKRTQFAIPPLALMILASIEVPGVEQTLCDLRFEEFPFDRQWDLVGISVQTGMASKAFELADRLRSRGVKVVLGGPHVTMFPDSCRAHADCLVHGEADDLWRDVLADLVTDSLKAEYRPDAPPDLQLHRPVSRASLKKNRYFTTNLVQTGRGCPYQCDFCNVHVLNGRVLRQRKIDHIVDEVRRFSEEDKRIFFFVDDSINGDPLFARELFKHLIPLNITWFGQATTALGQQPELLDTFARSGCRALLVGIESIEPSSRIAHKKTQNRTDELAGNIRAIRKSGISLYGSFIYGLDGDTLQTPQAILDFIADTRLDVPGINTLRPIPGTKVFDRLREEGRLLFDPEDITSFRYTFGQEMLYRPKNIPLPEFIESYSELTRKVFNIGNAIRRGLEAPGINAAVLFFNLFYTHLYRLSRNDLRKQLETLGSA | failed
MAYDDIVSSMVLELRRGTLVMLVLSQLREPAYGYALVKSLADHGIPIEANTLYPLMRRLESQGLLASEWDNGGSKPRKYYRTTDEGLRVLREVEAQWHVLCDGVGKLLETNGEDREHAER | not failed
MAYDGLFTKKMVESLQFLTTGRVHKINQPDNDTILMVVRQNRQNHQLLLSIHPNFSRLQLTTKKYDNPFNPPMFARVFRKHLEGGIIESIKQIGNDRRIEIDIKSKDEIGDTIYRTVILEIMGKHSNLILVDENRKIIEGFKHLTPNTNHYRTVMPGFNYEAPPTQHKINPYDITGAEVLKYIDFNAGNIAKQLLNQFEGFSPLITNEIVSRRQFMTSSTLPEAFDEVMAETKLPPTPIFHKNHETGKEDFYFIKLNQFNDDTVTYDSLNDLLDRFYDARGERERVKQ | not failed
MAYDIERYLDIRGAGDPTYGPTGELAFTLGTTGTAQVWALGAPGAWPTQLTFHDERVQWASFSPTREELAYGMDTGGDEFTQLHRVSGDGSEDVQLTAFPDAKHDWGGWSHDGDRIAYTANRRDASRFDVYVQGRDEAGANADCVRVGDTFDLPSVVGWSPSDDRLLVVDTHSNFDQDVAVLDVDTGEITRATAGLDADTRFSWVAWAPDGGGVYVTTDHDADTRYLGLLDPETGAISRVADGGDWPIEAVVTAHDAGRLAYVRNRDGYSELTIADAAGTTLTEQPTPELPDGVIRGLSWGPDGDTLAVVVSAATENPNVFVVDVATGAATQWTNAATAGIPKSTFREPELVRYETFDGREIPALFTRPDGDGPHPVIVDFHGGPEGQRRPSFLSLRQYFVDNGYAVFEPNVRGSSGYGATYMNLDNVRNRMDAVADGKAGVEWLTARTDIDADRVVAYGGSYGGFMVLASLTEYPELWAAGVDIVGIANFVTFLENTGDWRREHRESEYGSLDADREFLESISPTNNADRIRAPLLVLHGANDPRVPVGEAERIVEQASAHVPVEKHVFDDEGHGFSKRANKQAAYRAVVDFLDDHALEHHHHHH | failed
